According to US20170335016A1 (Kyowa Kirin, published 2017):
Where a chain is given by its changes, count along the chain named.

B1: multivalent antibody 341VL34-CH1-341 (bispecific antibody)
heavy: EVQLVESGGGLVKPGGSLRLSCGGSGFTFNNAWMNWVRQAPGKGLEWVGRIKGKTDGGTADYAAPVKGRFTISRDYSKNTLYLQMNSLTTEDTAVYYCNTDLPYYYGSGRYSGMDVWGQGTTVTVSSASTKGPSVFPLAPCSRSTSESTAALGCLVKDYFPEPVTVSWNSGALTSGVHTFPAVLQSSGLYSLSSVVTVPSSNFGTQTYTCNVDHKPSNTKVDKTVGSQVQLQQSGPGLVKPSQTLSLTCAISGDSVSSNSATWNWIRQSPSRDLEWLGRTYYRSKWYRDYVGSVKSRIIINPDTSNNQFSLQLNSVTPEDTAIYYCTRAQWLGGDYPYYYSMDVWGQGTTVTVSSASTKGPSVFPLAPCSRSTSESTAALGCLVKDYFPEPVTVSWNSGALTSGVHTFPAVLQSSGLYSLSSVVTVPSSNFGTQTYTCNVDHKPSNTKVDKTVERKCCVECPPCPAPPVAGPSVFLFPPKPKDTLMISRTPEVTCVVVDVSHEDPEVQFNWYVDGVEVHNAKTKPREEQFNSTFRVVSVLTVVHQDWLNGKEYKCKVSNKGLPASIEKTISKTKGQPREPQVYTLPPSREEMTKNQVSLTCLVKGFYPSDIAVEWESNGQPENNYKTTPPMLDSDGSFFLYSKLTVDKSRWQQGNVFSCSVMHEALHNHYTQKSLSLSPGK
light: EIVLTQSPATLSLSPGERATLSCRASQSVSSYLAWYQQKPGQAPRLLIYDASNRATGIPARFSGSGSGTDFTLTISSLEPEDFAVYYCQQRSNTFGPGTKVDIK
notes: Anti-CD28 site N-terminal, anti-CD40 site C-terminal; Tested as culture supernatant; not shown: human immunoglobulin kappa light chain constant region
B2: multivalent antibody 341-CH1-341VL34 (bispecific antibody)
heavy: QVQLQQSGPGLVKPSQTLSLTCAISGDSVSSNSATWNWIRQSPSRDLEWLGRTYYRSKWYRDYVGSVKSRIIINPDTSNNQFSLQLNSVTPEDTAIYYCTRAQWLGGDYPYYYSMDVWGQGTTVTVSSASTKGPSVFPLAPCSRSTSESTAALGCLVKDYFPEPVTVSWNSGALTSGVHTFPAVLQSSGLYSLSSVVTVPSSNFGTQTYTCNVDHKPSNTKVDKTVGSEVQLVESGGGLVKPGGSLRLSCGGSGFTFNNAWMNWVRQAPGKGLEWVGRIKGKTDGGTADYAAPVKGRFTISRDYSKNTLYLQMNSLTTEDTAVYYCNTDLPYYYGSGRYSGMDVWGQGTTVTVSSASTKGPSVFPLAPCSRSTSESTAALGCLVKDYFPEPVTVSWNSGALTSGVHTFPAVLQSSGLYSLSSVVTVPSSNFGTQTYTCNVDHKPSNTKVDKTVERKCCVECPPCPAPPVAGPSVFLFPPKPKDTLMISRTPEVTCVVVDVSHEDPEVQFNWYVDGVEVHNAKTKPREEQFNSTFRVVSVLTVVHQDWLNGKEYKCKVSNKGLPASIEKTISKTKGQPREPQVYTLPPSREEMTKNQVSLTCLVKGFYPSDIAVEWESNGQPENNYKTTPPMLDSDGSFFLYSKLTVDKSRWQQGNVFSCSVMHEALHNHYTQKSLSLSPGK
light: B1 light
notes: Anti-CD40 site N-terminal, anti-CD28 site C-terminal; Tested as culture supernatant; not shown: human immunoglobulin kappa light chain constant region
B3: anti-CD40 antibody 341-1-19 (antibody, IgG2, V domains shown)
VH: QVQLQQSGPGLVKPSQTLSLTCAISGDSVSSNSATWNWIRQSPSRDLEWLGRTYYRSKWYRDYVGSVKSRIIINPDTSNNQFSLQLNSVTPEDTAIYYCTRAQWLGGDYPYYYSMDVWGQGTTVTVSS
VL: B1 light
notes: IgG2; Tested as culture supernatant; also called antibody produced by hybridoma KM341-1-19; not shown: human immunoglobulin kappa light chain constant region; kappa inferred from the anti-human κ detecti
B4: anti-CD28 antibody 341VL34 (antibody, V domains shown)
VH: EVQLVESGGGLVKPGGSLRLSCGGSGFTFNNAWMNWVRQAPGKGLEWVGRIKGKTDGGTADYAAPVKGRFTISRDYSKNTLYLQMNSLTTEDTAVYYCNTDLPYYYGSGRYSGMDVWGQGTTVTVSS
VL: B1 light
notes: Made in the N5KG2Ser vector; Tested as culture supernatant; not shown: human immunoglobulin kappa light chain constant region
B5: multivalent antibody 341VL36-CH1-H-CH2-CH3-341-CH1 (bispecific antibody)
heavy: EVQLVESGGGLVKPGGSLRLSCGGSGFTFNNAWMNWVRQAPGKGLEWVGRIKGKTDGGTADYAAPVKGRFTISRDYSKNTLYLQMNSLKTEDTGVYYCTTYLPYYYGSERWSGMDVWGQGTTVTVSSASTKGPSVFPLAPCSRSTSESTAALGCLVKDYFPEPVTVSWNSGALTSGVHTFPAVLQSSGLYSLSSVVTVPSSNFGTQTYTCNVDHKPSNTKVDKTVERKCCVECPPCPAPPVAGPSVFLFPPKPKDTLMISRTPEVTCVVVDVSHEDPEVQFNWYVDGVEVHNAKTKPREEQFNSTFRVVSVLTVVHQDWLNGKEYKCKVSNKGLPASIEKTISKTKGQPREPQVYTLPPSREEMTKNQVSLTCLVKGFYPSDIAVEWESNGQPENNYKTTPPMLDSDGSFFLYSKLTVDKSRWQQGNVFSCSVMHEALHNHYTQKSLSLSPGKGSQVQLQQSGPGLVKPSQTLSLTCAISGDSVSSNSATWNWIRQSPSRDLEWLGRTYYRSKWYRDYVGSVKSRIIINPDTSNNQFSLQLNSVTPEDTAIYYCTRAQWLGGDYPYYYSMDVWGQGTTVTVSSASTKGPSVFPLAPCSRSTSESTAALGCLVKDYFPEPVTVSWNSGALTSGVHTFPAVLQSSGLYSLSSVVTVPSSNFGTQTYTCNVDHKPSNTKVDKTV
light: B1 light
notes: Entry probably still carries the signal peptide; Tested as culture supernatant; not shown: human immunoglobulin kappa light chain constant region
B6: anti-CD28 antibody 341VL36 (antibody, V domains shown)
VH: B4 VH with T89K, A94G, N99T, D101Y, G109E, Y111W
VL: B1 light
notes: as for B4
B7: multivalent antibody 341-CH1-341VL36 (bispecific antibody)
heavy: B2 heavy with T317K, A322G, N327T, D329Y, G337E, Y339W
light: B1 light
notes: Anti-CD40 site N-terminal, anti-CD28 site C-terminal; Entry probably still carries the signal peptide; Tested as culture supernatant; not shown: human immunoglobulin kappa light chain constant region
B8: multivalent antibody 341VL36-CH1-341 (bispecific antibody)
heavy: B1 heavy with T89K, A94G, N99T, D101Y, G109E, Y111W
light: B1 light
notes: Anti-CD28 site N-terminal, anti-CD40 site C-terminal; Entry probably still carries the signal peptide; Tested as culture supernatant; not shown: human immunoglobulin kappa light chain constant region
B9: DVD341VL34-341 (bispecific antibody, human IgG2, kappa)
heavy: EVQLVESGGGLVKPGGSLRLSCGGSGFTFNNAWMNWVRQAPGKGLEWVGRIKGKTDGGTADYAAPVKGRFTISRDYSKNTLYLQMNSLTTEDTAVYYCNTDLPYYYGSGRYSGMDVWGQGTTVTVSSASTKGPQVQLQQSGPGLVKPSQTLSLTCAISGDSVSSNSATWNWIRQSPSRDLEWLGRTYYRSKWYRDYVGSVKSRIIINPDTSNNQFSLQLNSVTPEDTAIYYCTRAQWLGGDYPYYYSMDVWGQGTTVTVSSASTKGPSVFPLAPCSRSTSESTAALGCLVKDYFPEPVTVSWNSGALTSGVHTFPAVLQSSGLYSLSSVVTVPSSNFGTQTYTCNVDHKPSNTKVDKTVERKCCVECPPCPAPPVAGPSVFLFPPKPKDTLMISRTPEVTCVVVDVSHEDPEVQFNWYVDGVEVHNAKTKPREEQFNSTFRVVSVLTVVHQDWLNGKEYKCKVSNKGLPASIEKTISKTKGQPREPQVYTLPPSREEMTKNQVSLTCLVKGFYPSDIAVEWESNGQPENNYKTTPPMLDSDGSFFLYSKLTVDKSRWQQGNVFSCSVMHEALHNHYTQKSLSLSPGK
light: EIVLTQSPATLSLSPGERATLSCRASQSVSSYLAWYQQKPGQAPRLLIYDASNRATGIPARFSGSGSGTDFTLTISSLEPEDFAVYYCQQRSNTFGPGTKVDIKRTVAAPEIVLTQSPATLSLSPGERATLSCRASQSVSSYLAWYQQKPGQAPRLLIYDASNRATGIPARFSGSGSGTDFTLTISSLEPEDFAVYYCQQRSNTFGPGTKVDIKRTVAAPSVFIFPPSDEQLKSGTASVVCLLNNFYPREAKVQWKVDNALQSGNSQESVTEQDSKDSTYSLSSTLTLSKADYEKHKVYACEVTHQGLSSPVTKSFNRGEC
notes: Comparison molecule with a short linker, after Wu et al. Entries probably still carry signal peptides; Tested as culture supernatant
B10: DVD341VL36-341 (bispecific antibody, human IgG2, kappa)
heavy: B9 heavy with T89K, A94G, N99T, D101Y, G109E, Y111W
light: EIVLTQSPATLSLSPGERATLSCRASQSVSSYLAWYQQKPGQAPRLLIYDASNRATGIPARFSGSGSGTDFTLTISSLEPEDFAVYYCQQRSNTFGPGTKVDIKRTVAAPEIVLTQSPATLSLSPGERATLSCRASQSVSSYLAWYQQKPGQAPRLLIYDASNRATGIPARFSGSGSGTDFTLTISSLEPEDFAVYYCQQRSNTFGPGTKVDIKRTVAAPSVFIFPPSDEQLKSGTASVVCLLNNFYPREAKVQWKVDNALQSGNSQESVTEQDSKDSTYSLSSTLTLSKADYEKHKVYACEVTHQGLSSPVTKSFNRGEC
notes: as for B9
B11: 341VL34 scFv (scFv)
scFv: EVQLVESGGGLVKPGGSLRLSCGGSGFTFNNAWMNWVRQAPGKGLEWVGRIKGKTDGGTADYAAPVKGRFTISRDYSKNTLYLQMNSLTTEDTAVYYCNTDLPYYYGSGRYSGMDVWGQGTTVTVSSGGGGSGGRASGGGGSEIVLTQSPATLSLSPGERATLSCRASQSVSSYLAWYQQKPGQAPRLLIYDASNRATGIPARFSGSGSGTDFTLTISSLEPEDFAVYYCQQRSNTFGPGTKVDIK
notes: phage culture supernatant
B12: 341VL36 scFv (scFv)
scFv: B11 scFv with T89K, A94G, N99T, D101Y, G109E, Y111W
notes: phage culture supernatant

What follows are binders tested against T1, human-CD28-Fc fusion protein (human, UniProt P10747 19-152) (assay: ELISA, human-CD28-Fc coated at 1 µg/mL, culture supernatant, anti-human κ HRP detection).
T1 construct: also called Fc fusion protein of the human-CD28 extracellular domain with IgG; hECD28-Fc
T1 sequence (P10747 19-152): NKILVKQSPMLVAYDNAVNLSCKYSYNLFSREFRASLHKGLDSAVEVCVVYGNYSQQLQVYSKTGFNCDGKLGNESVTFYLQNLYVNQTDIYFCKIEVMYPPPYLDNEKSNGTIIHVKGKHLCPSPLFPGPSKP
Description: (§1) The human-CD4O-Fc fusion protein and the human-CD28-Fc fusion protein were adjusted to give a concentration of 1 μg/mL using coating buffer (50 mM carbonate buffer, pH 9). To a well, 50 μL/well of the obtained human-CD4O-Fc fusion prostein or the obtained human-CD28-Fc fusion protein was added into the Maxisorp Plate (manufactured by Nalge Nunc International) respectively, and incubated at 4° C. overnight to be immobilized. Then, 200 μL/well of blocking reagent (SuperBlock (registered trademark) Blocking Buffer, manufactured by Pierce Protein Research) was added to the well, followed by incubation at room temperature for 30 minutes for blocking. Then, 50 μL/well of the culture supernatant comprising each antibody obtained in above Examples was added to the well followed by incubation at room temperature for 1 hour. After washing three times with Washing buffer (0.1% Tween20-TBS), Affinity Isolated Antibody HRP Conjugated Goat F(ab)₂ anti-Human κ (manufactured by EY Laboratories Inc) was diluted with assay diluent (0.1% Tween20-TBS containing Block Ace manufactured by Dainippon Sumitomo Pharma Co. Ltd. by 10%). Then, 50 μL of the obtained solution was added to each well followed by incubation at a room temperature for 1 hour. After washing three times with washing buffer, 50 μL of TMB (manufactured by Dako) coloring substrate solution was added to each well, followed by incubation in a dark room at room temperature. After developping color, 0.5 M vitriol (50 μL/well) was added to stop the reaction. The absorbance at the wavelength of 450 nm was measured with a microplate reader (SPECTRAMAX190, manufactured by Molecular Devices Inc).
B1: binds. B2: binds. B3: no binding. B4: binds. B5: binds. B6: binds. B7: binds. B8: binds. B9: binds. B10: binds.

These binders were tested against T1, human-CD28-Fc fusion protein (assay: phage ELISA, human-CD28-Fc coated at 2 µg/mL, anti-E tag HRP detection).
Description: Each single colony obtained from the antibody library to which the panning had been applied was seeded in 200 μL of 2×YTAG culture medium and subjected to a shaking culture at 30° C. for 4 to 5 hours. Then, 200 μL of 1×10¹⁰ pfu/mL M13KO helper phage was added to the culture solution for the infection (the shaking culture at 30° C. for 1 hour). After changing the culture medium to 2×YTAK, the shaking culture was carried out at 30° C. overnight. The binding property to the antigen was examined by the following steps (ELISA) using this culture supernatant as a phage solution.
The human-CD28-Fc fusion protein was diluted with Coating buffer (50 mM carbonate buffer, pH 9) to give a concentration of 2 μg/mL. The obtained solution was put into the Maxisorp Plate (manufactured by Nalge Nunc International) at 50 μL/well and incubated at 4° C. overnight to be immobilized. Then, to the well, 200 μL/well of blocking reagent (SuperBlock (registered trademark) Blocking Buffer, manufactured by Pierce Protein Research) was added, the resulting object was incubated at a room temperature for 30 minutes to complete the blocking. To the well, 50 μL/well of each phage solution was added, and incubated at a room temperature for 1 hour. […] The absorbance at the wavelength of 450 nm was measured with a microplate reader (SPECTRAMAX190, manufactured by Molecular Devices Inc).
B11: binds. B12: binds.

These binders were tested against T2, human-CD40-Fc fusion protein (human, UniProt P25942 21-193) (assay: ELISA, human-CD40-Fc coated at 1 µg/mL, culture supernatant, anti-human κ HRP detection).
T2 construct: also called human-CD4O-Fc fusion protein; not shown: Fc part; origin and limits not described
T2 sequence (P25942 21-193 limits assumed): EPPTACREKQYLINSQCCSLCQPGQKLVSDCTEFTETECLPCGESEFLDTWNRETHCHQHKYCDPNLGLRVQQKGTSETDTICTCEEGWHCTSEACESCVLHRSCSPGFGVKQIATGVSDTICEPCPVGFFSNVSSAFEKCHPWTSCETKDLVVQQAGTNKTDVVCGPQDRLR
Description: as §1, with “After washing three times with washing buffer, 50 μL of TMB (manufactured by Dako) coloring substrate solution was added to each well, followed by incubation in a dark room at room temperature. After developping color, 0.5 M vitriol (50 μL/well) was added to stop the reaction.” left out
B4: no binding. B6: no binding.
